In the RNAGym collection of RNA variant scans (doi:10.7554/elife.80360):

B1: HDV Ribozyme (parent)
chain: GGCCGGCAUGGUCCCAGCCUCCUCGCUGGCGCCGGCUGGGCAACAUUCCGAGGGGACCGUCCCCUCGGUAAUGGCGAAUGGGACCCA

Variants of: B1
Assay: self-cleavage, relative activity (ratio to wild type); higher = more cleavage; co-transcriptional

Variant | self-cleavage
C4A U27C | 0
C4A U27A | 0.189
C4A C48U | 0.151
C4U C21A | 0
C4U C21G | 0
C4U G6C | 0
C4G C44U | 0.141
C4G G6C | 0.214
C4A G11C | 0.0604
C4A G11A | 0.0183
C4G G25U | 0.109
C4A C86A | 0.185
C4G G74A | 0.0639
C4G A83C | 0.102
C4A U69A | 0.185
C4A C66G | 0.289
C4G C62A | 0.446
C4G C62U | 0.388
C4U A8U | 0.415
C4U A8G | 0.762
C4G G82C | 0
C4G G82A | 0.0674
C4U G81C | 0.135
C4A C49G | 0.302

Variant | self-cleavage
C4U G29A | 0
C4U G29C | 0.0396
C4G C36U | 0.0504
C4G C36G | 0.0268
C4G C41G | 0.0437
C4G G17C | 0.0354
C4G G17A | 0.0791
C4U U37A | 0
C4G G10C | 0.237
C4G G10U | 0.0779
C4A U20G | 0
C4A U20A | 0.0386
C4U C44U | 0.394
C4U C44A | 0.578
C4U A83U | 0.115
C4U U27A | 0.246
C4U U27G | 0.453
C4A G74A | 0
C4A G80A | 0.0519
C4A G80C | 0
C4A G80U | 0.048
C4A G10A | 0.0554
C4A G10C | 0.141
C4A U79C | 0

Variant | self-cleavage
C4A U79G | 0
C4U U79C | 0.136
C4U C63A | 0.95
C4G G50U | 0.527
G5A | 0.199
C4G C33U | 0.123
C4A G34U | 0.831
C4U G39C | 0.0536
C4G C61A | 0.35
C4G C61G | 0.325
C4G G31C | 0.108
C4G C58A | 0.429
C4G C57U | 0.529
C4G C21G | 0
C4G G73C | 0.0361
C4G A56C | 0.32
C4G A56U | 0.462
C4A C63G | 0.0755
C4U C86U | 0.889
C4A U37A | 0.0332
C4G C7U | 0.0234
C4U U60G | 0.939
C4U C84G | 0.19
C4G A43U | 0.0415

Variant | self-cleavage
C4A G39U | 0.14
C4G G11U | 0.0767
C4U G25U | 0.0287
C4G C66G | 0.727
C4G U65G | 0.231
C4U G59C | 0.81
C4G U37C | 0.375
C4A G52U | 0.213
C4A G52C | 0.406
C4U A78C | 0.0378
C4U G10U | 0.163
C4A G25U | 0.0252
C4G C86U | 0.44
C4U C75U | 0.155
C4U C75A | 0.128
C4U G40U | 0.48
C4U A71G | 0.643
C4G C30U | 0.0615
G5A A56G | 0.225
C4G G54U | 0.464
C4G G54A | 0.288
C4A U47G | 0.201
C4A G59U | 0.415
C4U G17C | 0.147

Variant | self-cleavage
C4U A16G | 0.862
C4U A16U | 0.462
C4G C64G | 0.259
C4G A42C | 0
C4U C26A | 0.773
C4A U46A | 0.151
C4A U46G | 0.0615
C4A U46C | 0.111
C4G G53A | 0.277
C4G G53C | 0.213
C4U G73A | 0.293
C4U U12A | 0.111
C4U U12C | 0.145
C4U U47A | 0.739
C4G G40A | 0.237
C4U C15G | 0.262
C4G A8C | 0.0898
C4G C84A | 0.225
G5A A16G | 0.35
C4G U47A | 0.346
C4G U23G | 0.0386
C4A G6A | 0.0573
C4A G6U | 0.0791
C4U C66G | 0.875

Variant | self-cleavage
C4U G68A | 0.604
C4U G68C | 0.635
C4U C33A | 0.0845
C4G A87U | 0.225
C4G G5C | 0.0594
C4U C13A | 0.122
C4A G29C | 0.0369
C4U A70C | 0.482
C4G G34U | 0.864
C4U C7A | 0.104
C4U C7U | 0.457
C4U G50U | 0.656
C4U C22U | 0.259
C4U C32A | 0.0906
C4U A87U | 0.817
C4U A87G | 0.599
C4U C62A | 1.06
C4G U9A | 0.534
C4A G31A | 0.0415
C4A C58A | 0.348
C4A G40C | 0.0511
C4G U12A | 0
G5A A51U | 0.104
G5A A51G | 0.203

Variant | self-cleavage
C4U A56U | 0.898
C4U A56G | 0.665
C4A C75U | 0.102
C4A C75A | 0.157
C4A G81A | 0.0468
C4G G67A | 0.437
C4G G67U | 0.227
C4A C85G | 0.393
C4A G67A | 0.149
C4A G67C | 0.348
C4G U20C | 0.0791
C4U C41A | 0.434
C4U C30A | 0.133
C4U C30G | 0
C4G C19A | 0
C4G G59U | 0.475
C4U G38U | 0.13
C4U G38A | 0.0978
C4A G38U | 0.0449
C4U A77U | 0.415
C4A C57G | 0.277
C4A U9A | 0.323
C4A U9G | 0.383
